Residue numbers refer to the chain shown, from its start.
B1: 547 (protein)
chain: LDNGLARTPTMGWLHWERFMCNLDCQEEPDSCISEKLFMEMAERMVSEGWKDAGYEYLCIDDCWMAPQRDSEGRLQADPQRFPHGIRQLANHVHSKGLKLGIYADVGNKTCAGFPGSFGYYDIDAQTFADWGVDLLKFDGCYCDSLENLADGYKHMSLALNRTGRSIVYSCEWPLYMWPFQKPNYTEIRQYCNHWRNFADIDDSWASIKSILDWTSRNQERIVDVAGPGGWNDPDMLVIGNFGLSWDQQVTQMALWAIMAAPLFMSNDLRHISPQAKALLQDKDVIAINQDPLGLQGYQLRKGDNFEVWERPLSGDAWAVAIINRQEIGGPRSYTIPVASLGKGVACNPACFITQLLPVKRQLGFYNWTSRLKSHINPTGTVLLQLENTMQMSLKDLL
modifications: Synthetic Polypeptide sequence of Variant No. 547 of mature Human GLA
B2: 548 (protein)
chain: B1 chain with L295N
modifications: Synthetic Polypeptide sequence of Variant No. 548 of mature Human GLA
B3: 378 (protein)
chain: B1 chain with R44T, H92Y, A206K, L295K
modifications: Synthetic Polypeptide sequence of Variant No. 378 of mature Human GLA
B4: 388 (protein)
chain: B1 chain with H92Y, V93L, A206K, L295K
modifications: Synthetic Polypeptide sequence of Variant No. 388 of mature Human GLA
B5: 384 (protein)
chain: B1 chain with H92V, A206K, L295K
modifications: Synthetic Polypeptide sequence of Variant No. 384 of mature Human GLA
B6: 380 (protein)
chain: B1 chain with H92K, A206K, L295K
modifications: Synthetic Polypeptide sequence of Variant No. 380 of mature Human GLA
B7: 383 (protein)
chain: B1 chain with H92C, A206K, L295K
modifications: Synthetic Polypeptide sequence of Variant No. 383 of mature Human GLA
B8: 382 (protein)
chain: B1 chain with H92Y, H94N, A206K, L295K
modifications: Synthetic Polypeptide sequence of Variant No. 382 of mature Human GLA
B9: 360 (protein)
chain: B1 chain with R44E, H92Y, L295K
modifications: Synthetic Polypeptide sequence of Variant No. 360 of mature Human GLA
B10: 386 (protein)
chain: B1 chain with H92Y, H94R, A206K, L295K
modifications: Synthetic Polypeptide sequence of Variant No. 386 of mature Human GLA
B11: 381 (protein)
chain: B1 chain with H92S, A206K, L295K
modifications: Synthetic Polypeptide sequence of Variant No. 381 of mature Human GLA
B12: 389 (protein)
chain: B1 chain with H92Y, V93S, A206K, L295K
modifications: Synthetic Polypeptide sequence of Variant No. 389 of mature Human GLA
B13: 390 (protein)
chain: B1 chain with H92Y, V93Q, A206K, L295K
modifications: Synthetic Polypeptide sequence of Variant No. 390 of mature Human GLA
B14: 379 (protein)
chain: B1 chain with S47T, H92Y, A206K, L295K
modifications: Synthetic Polypeptide sequence of Variant No. 379 of mature Human GLA
B15: 385 (protein)
chain: B1 chain with H92A, A206K, L295K
modifications: Synthetic Polypeptide sequence of Variant No. 385 of mature Human GLA
B16: 387 (protein)
chain: B1 chain with H92Y, V93T, A206K, L295K
modifications: Synthetic Polypeptide sequence of Variant No. 387 of mature Human GLA

Test: HTP-analysis of yeast culture supernatants, no challenge (MUGal hydrolysis)
Format: biochemical
Settings: activity of the variant/activity of Rd3BB (SEQ ID NO: 13)
Method in brief: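 Activity read as 4-methylumbelliferyl α-D-galactopyranoside hydrolysis: fluorescence (355/448 nm) after sodium carbonate stop, following 30-180 min at 37° C with 2 mM MUGal stock at pH 4.6–4.8. Enzyme source is unchallenged culture supernatant of INVSc1 yeast expressing GLA variants, grown 66-84 h at 30° C.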

Q: Which “Relative Activity of GLA Variants After No Challenge (NC)” value does the source give for B1 here?
A: + (+ = 1.5 to 5 relative activity over Rd3BB (SEQ ID NO: 13))

Q: For B2, which “Relative Activity of GLA Variants After No Challenge (NC)” value is on record?
A: + (+ = 1.5 to 5 relative activity over Rd3BB (SEQ ID NO: 13))

Same assay, conditions: activity of the variant/activity of Rd4BB (SEQ ID NO: 15)

Q: Which “Relative Activity of GLA Variants After No Challenge (NC)” value does the source give for B3 here?
A: + (0.5 to 1.5 relative activity over Rd4BB (SEQ ID NO: 15))

Q: For B4, which “Relative Activity of GLA Variants After No Challenge (NC)” value is on record?
A: + (0.5 to 1.5 relative activity over Rd4BB (SEQ ID NO: 15))

Q: With B5 as the molecule, how does the “Relative Activity of GLA Variants After No Challenge (NC)” value read?
A: + (0.5 to 1.5 relative activity over Rd4BB (SEQ ID NO: 15))

Q: Which “Relative Activity of GLA Variants After No Challenge (NC)” value does the source give for B6 here?
A: + (0.5 to 1.5 relative activity over Rd4BB (SEQ ID NO: 15))

Q: With B7 as the molecule, how does the “Relative Activity of GLA Variants After No Challenge (NC)” value read?
A: + (0.5 to 1.5 relative activity over Rd4BB (SEQ ID NO: 15))

Q: With B8 as the molecule, how does the “Relative Activity of GLA Variants After No Challenge (NC)” value read?
A: − (<0.5 relative activity over Rd4BB (SEQ ID NO: 15))

Q: Which “Relative Activity of GLA Variants After No Challenge (NC)” value does the source give for B9 here?
A: + (0.5 to 1.5 relative activity over Rd4BB (SEQ ID NO: 15))

Q: Which “Relative Activity of GLA Variants After No Challenge (NC)” value does the source give for B10 here?
A: − (<0.5 relative activity over Rd4BB (SEQ ID NO: 15))

Q: Which “Relative Activity of GLA Variants After No Challenge (NC)” value does the source give for B11 here?
A: + (0.5 to 1.5 relative activity over Rd4BB (SEQ ID NO: 15))

Q: With B12 as the molecule, how does the “Relative Activity of GLA Variants After No Challenge (NC)” value read?
A: + (0.5 to 1.5 relative activity over Rd4BB (SEQ ID NO: 15))

Q: For B13, which “Relative Activity of GLA Variants After No Challenge (NC)” value is on record?
A: + (0.5 to 1.5 relative activity over Rd4BB (SEQ ID NO: 15))

Q: With B14 as the molecule, how does the “Relative Activity of GLA Variants After No Challenge (NC)” value read?
A: + (0.5 to 1.5 relative activity over Rd4BB (SEQ ID NO: 15))

Q: With B15 as the molecule, how does the “Relative Activity of GLA Variants After No Challenge (NC)” value read?
A: + (0.5 to 1.5 relative activity over Rd4BB (SEQ ID NO: 15))

Q: For B16, which “Relative Activity of GLA Variants After No Challenge (NC)” value is on record?
A: + (0.5 to 1.5 relative activity over Rd4BB (SEQ ID NO: 15))

Test: HTP-analysis of supernatants pretreated with acid (MUGal hydrolysis)
Format: biochemical
Settings: activity of the variant/activity of Rd3BB (SEQ ID NO: 13); challenge at pH 3.7
Method in brief: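 MUGal hydrolysis was tracked by fluorescence (Ex 355 nm, Em 448 nm) after a 30-180 min reaction at 37° C. in pH 4.8 McIlvaine/citrate buffer, stopped with 1 M sodium carbonate. Beforehand, yeast (INVSc1) culture supernatants carrying GLA variants were held 1-3 h at 37° C. in acidic McIlvaine buffer, pH 3.3-4.3.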

Q: Which “Relative Activity of GLA Variants After Challenge at pH 3.7” value (from here on “Relative Activity … at pH 3.7”) does the source give for B1 here?
A: + (+ = 1.5 to 5 relative activity over Rd3BB (SEQ ID NO: 13))

Q: For B2, which “Relative Activity … at pH 3.7” value is on record?
A: +++ (+++ = >10 relative activity over Rd3BB (SEQ ID NO: 13))

Same assay, conditions: activity of the variant/activity of Rd4BB (SEQ ID NO: 15); challenge at pH 3.7

Q: Which “Relative Activity … at pH 3.7” value does the source give for B3 here?
A: − (<0.5 relative activity over Rd4BB (SEQ ID NO: 15))

Q: With B4 as the molecule, how does the “Relative Activity … at pH 3.7” value read?
A: − (<0.5 relative activity over Rd4BB (SEQ ID NO: 15))

Q: With B5 as the molecule, how does the “Relative Activity … at pH 3.7” value read?
A: + (0.5 to 1.5 relative activity over Rd4BB (SEQ ID NO: 15))

Q: With B6 as the molecule, how does the “Relative Activity … at pH 3.7” value read?
A: + (0.5 to 1.5 relative activity over Rd4BB (SEQ ID NO: 15))

Q: Which “Relative Activity … at pH 3.7” value does the source give for B7 here?
A: − (<0.5 relative activity over Rd4BB (SEQ ID NO: 15))

Q: Which “Relative Activity … at pH 3.7” value does the source give for B8 here?
A: − (<0.5 relative activity over Rd4BB (SEQ ID NO: 15))

Q: Which “Relative Activity … at pH 3.7” value does the source give for B9 here?
A: + (0.5 to 1.5 relative activity over Rd4BB (SEQ ID NO: 15))

Q: With B10 as the molecule, how does the “Relative Activity … at pH 3.7” value read?
A: + (0.5 to 1.5 relative activity over Rd4BB (SEQ ID NO: 15))

Q: Which “Relative Activity … at pH 3.7” value does the source give for B11 here?
A: + (0.5 to 1.5 relative activity over Rd4BB (SEQ ID NO: 15))

Q: Which “Relative Activity … at pH 3.7” value does the source give for B12 here?
A: + (0.5 to 1.5 relative activity over Rd4BB (SEQ ID NO: 15))

Q: For B13, which “Relative Activity … at pH 3.7” value is on record?
A: + (0.5 to 1.5 relative activity over Rd4BB (SEQ ID NO: 15))

Q: For B14, which “Relative Activity … at pH 3.7” value is on record?
A: ++ (>1.5 to 2.5 relative activity over Rd4BB (SEQ ID NO: 15))

Q: Which “Relative Activity … at pH 3.7” value does the source give for B15 here?
A: + (0.5 to 1.5 relative activity over Rd4BB (SEQ ID NO: 15))

Q: Which “Relative Activity … at pH 3.7” value does the source give for B16 here?
A: + (0.5 to 1.5 relative activity over Rd4BB (SEQ ID NO: 15))

Test: HTP-analysis of supernatants pretreated with base (MUGal hydrolysis)
Format: biochemical
Settings: activity of the variant/activity of Rd3BB (SEQ ID NO: 13); challenge at pH 9.7
Method in brief: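 GLA variants were secreted by transformed INVSc1 yeast grown 66-84 h at 30° C. Supernatants were exposed to neutral-to-basic buffers (pH 7.0-9.7) at 37° C for 1-18 h, then assayed with MUGal in acidic citrate/McIlvaine buffer, with fluorescence read after quenching.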

Q: Which “Relative Activity of GLA Variants After Challenge at pH 9.7” value does the source give for B1 here?
A: ++ (++ = >5 to 10 relative activity over Rd3BB (SEQ ID NO: 13))

Q: With B2 as the molecule, how does the “Relative Activity of GLA Variants After Challenge at pH 9.7” value read?
A: ++ (++ = >5 to 10 relative activity over Rd3BB (SEQ ID NO: 13))

Same assay, conditions: activity of the variant/activity of Rd4BB (SEQ ID NO: 15); challenge at pH 9.65

Q: With B3 as the molecule, how does the “Relative Activity of GLA Variants After Challenge at pH 9.65” value (shortened to “Relative Activity … at pH 9.65”) read?
A: + (0.5 to 1.5 relative activity over Rd4BB (SEQ ID NO: 15))

Q: With B4 as the molecule, how does the “Relative Activity … at pH 9.65” value read?
A: + (0.5 to 1.5 relative activity over Rd4BB (SEQ ID NO: 15))

Q: With B5 as the molecule, how does the “Relative Activity … at pH 9.65” value read?
A: − (<0.5 relative activity over Rd4BB (SEQ ID NO: 15))

Q: Which “Relative Activity … at pH 9.65” value does the source give for B6 here?
A: − (<0.5 relative activity over Rd4BB (SEQ ID NO: 15))

Q: For B7, which “Relative Activity … at pH 9.65” value is on record?
A: − (<0.5 relative activity over Rd4BB (SEQ ID NO: 15))

Q: For B8, which “Relative Activity … at pH 9.65” value is on record?
A: − (<0.5 relative activity over Rd4BB (SEQ ID NO: 15))

Q: With B9 as the molecule, how does the “Relative Activity … at pH 9.65” value read?
A: + (0.5 to 1.5 relative activity over Rd4BB (SEQ ID NO: 15))

Q: Which “Relative Activity … at pH 9.65” value does the source give for B10 here?
A: − (<0.5 relative activity over Rd4BB (SEQ ID NO: 15))

Q: With B11 as the molecule, how does the “Relative Activity … at pH 9.65” value read?
A: − (<0.5 relative activity over Rd4BB (SEQ ID NO: 15))

Q: With B12 as the molecule, how does the “Relative Activity … at pH 9.65” value read?
A: − (<0.5 relative activity over Rd4BB (SEQ ID NO: 15))

Q: Which “Relative Activity … at pH 9.65” value does the source give for B13 here?
A: − (<0.5 relative activity over Rd4BB (SEQ ID NO: 15))

Q: Which “Relative Activity … at pH 9.65” value does the source give for B14 here?
A: + (0.5 to 1.5 relative activity over Rd4BB (SEQ ID NO: 15))

Q: For B15, which “Relative Activity … at pH 9.65” value is on record?
A: − (<0.5 relative activity over Rd4BB (SEQ ID NO: 15))

Q: For B16, which “Relative Activity … at pH 9.65” value is on record?
A: − (<0.5 relative activity over Rd4BB (SEQ ID NO: 15))

Source: US11278600B2, “Human alpha-galactosidase variants” (Codexis, Inc., priority 2014, dated 2022)
